Assay [1] addresses PfCSPm (PfCSP_SAmut_C5S), stabilized mutant form of PfCSP (Plasmodium falciparum) (UniProt Q7K740). The assay can be described thus: ITC. Background: ITC needs no label: the signal is the heat of the interaction.
The target is the same in assay [2]. Nature of the assay: ITC, two-site model [lower table].
Assay [3] shares this target. Nature of the assay: ITC, two-site model.
Assay [4] has the same target. The assay can be described thus: ITC, antibody titrated into PfCSPm; first site.
The target is the same in assay [5]. The assay can be described thus: ITC, antibody titrated into PfCSPm; second site.
Assay [6] has the same target. The assay can be described thus: ITC, antibody titrated into PfCSPm, pH 7.4, 25 C, two sets of sites; second site.
For assay [7] the target is unchanged. The assay can be described thus: ITC, antibody titrated into PfCSPm, pH 7.4, 25 C, two sets of sites; first (junctional) site.

A word on the Kd: it is the constant that tells how readily two partners part at equilibrium. A lower Kd goes with tighter binding.

In assay [1], “mature CIS43 with L98I in the heavy chain (antibody)” returned a Kd of 11 nM, a change in ΔG of 0.2 kcal/mol and a fold affinity increase over mature CIS43 of 1.6 fold. In addition, in assay [2], the -TΔS1 worked out at 8.8 kcal/mol, the -TΔS2 was -0.9 kcal/mol, the ΔG1 is -10.8 kcal/mol and the ΔG2 was -10.2 kcal/mol. For the same substance, in assay [2], the ΔH1 is -19.6 kcal/mol and the ΔH2 is -9.3 kcal/mol.

mature CIS43 antibody (IgG): in assay [3], the -TΔS1 is 13.4 kcal/mol, the -TΔS2 stood at 0.9 kcal/mol, the ΔG1 was -10.6 kcal/mol and the ΔG2 is -9.8 kcal/mol. Further, in assay [3], the ΔH1 is -24 kcal/mol and the ΔH2 was -10.7 kcal/mol. The same substance gave a stoichiometry in assay [4] of 2.4. The same substance registered a stoichiometry in assay [5] of 5.8. The same substance registered a Kd in assay [6] of 63 nM. Moreover, the Kd in assay [7] turned out to be 18 nM.

For the origin of these results see patent publication US20250011406A1.
